Target: T1, recombinant 6×His-HIC (Human I-mfa domain-Containing protein) (human, UniProt Q9P1T7-2 1-246)
T1 construct: also called 6xHis-HIC; 6ΧHis HIC; source: recombinant, purified; produced as described previously [25]; not shown: 6xHis, N-terminal, kept
T1 sequence (looked up): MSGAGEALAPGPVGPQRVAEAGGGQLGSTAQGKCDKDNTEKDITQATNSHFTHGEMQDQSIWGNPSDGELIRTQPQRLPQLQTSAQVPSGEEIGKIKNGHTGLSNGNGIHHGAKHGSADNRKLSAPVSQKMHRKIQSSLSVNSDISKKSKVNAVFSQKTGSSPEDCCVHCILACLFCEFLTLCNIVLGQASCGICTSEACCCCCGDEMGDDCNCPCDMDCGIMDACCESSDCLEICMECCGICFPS
Assay: pull-down
Details: both partners purified

B1: GST-YFP-RevNLS (aa35-46) (domain or fragment)
chain: RQARRNRRRRWR
notes: source: recombinant GST fusion protein, purified; produced as described previously; not shown: GST, N-terminal, kept; YFP, N-terminal, kept
B1: binds.
